Assay results reported in patent US20100331255A1 (WAKE FOREST UNIVERSITY HEALTH SCIENCES, published 2010).

Biological target: T1, Rat PDI (protein disulfide isomerase) in extracted rat liver microsomal membranes (rat, UniProt P04785 20-509)
T1 construct: Endogenous protein solubilised from extracted rat liver microsomal membranes; also called 55 kDa PDI protein
T1 sequence (looked up): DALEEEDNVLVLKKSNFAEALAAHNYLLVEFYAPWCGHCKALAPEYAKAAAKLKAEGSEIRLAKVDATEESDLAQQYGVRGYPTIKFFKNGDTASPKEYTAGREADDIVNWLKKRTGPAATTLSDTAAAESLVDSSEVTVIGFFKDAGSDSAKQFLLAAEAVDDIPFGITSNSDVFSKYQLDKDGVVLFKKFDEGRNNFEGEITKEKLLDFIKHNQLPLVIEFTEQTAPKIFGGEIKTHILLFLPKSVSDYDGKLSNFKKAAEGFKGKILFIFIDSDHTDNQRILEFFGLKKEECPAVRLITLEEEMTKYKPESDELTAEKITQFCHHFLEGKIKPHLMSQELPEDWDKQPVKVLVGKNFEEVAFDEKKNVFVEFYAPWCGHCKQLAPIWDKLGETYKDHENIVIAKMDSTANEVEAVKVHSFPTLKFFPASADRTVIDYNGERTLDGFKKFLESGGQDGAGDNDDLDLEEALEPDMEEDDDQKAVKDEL
Assay: immunoprecipitation with rat VKORC1 antibodies from solubilised rat liver microsomal membranes, Western blot with PDI monoclonal antibody
Excerpt: Lane St. has standard proteins. […] Lanes D and E show Western blots of extracted human and rat liver microsomes respectively with peptide antibodies raised against an epitope on human VKORC1 (see Experimental Procedures). […] The sequence of precipitating and first antibody is shown. Rat PDI and the heavy (HIgG) and light (LIgG) chains of mouse IgG are visible. Panel II, lanes G.Ox. and G.Red show immunoprecipitates obtained with rat VKORC1 antibodies and their Western blots developed with the mouse PDI monoclonal antibody as the first antibody and horse radish conjugated goat anti-mouse IgG as the second antibody. The sequence of precipitating and first antibody is shown. Preparation of the samples before SDS-PAGE in 8-12% CRITERION gels is described in detail in Experimental Procedures. The samples in G.Ox and G.Red were not reduced and reduced with ME respectively prior to electrophoresis.
Extracted microsomal membranes were resuspended in buffer D (250 mM sodium phosphate, 0.5 M KCl, 20% glycerol, 0.75% CHAPS, pH 7.85 containing 10 μg/ml of the Sigma Protease Inhibitor Cocktail for use with mammalian cell and tissue extracts) using a Dounce homogenizer. For blocking of free thiol groups, 20 mg NEM was added per ml of buffer D before homogenizing. The protein concentration was 6.8 mg/ml. […]

- binding result: binds
B1: Rat VKORC1 in extracted rat liver microsomal membranes (enzyme, UniProt Q6TEK4 1-161, looked up)
chain: MGTTWRSPGRLRLALCLAGLALSLYALHVKAARARNEDYRALCDVGTAISCSRVFSSRWGRGFGLVEHVLGADSILNQSNSIFGCMFYTIQLLLGCLRGRWASILLILSSLVSVAGSLYLAWILFFVLYDFCIVCITTYAINAGLMLLSFQKVPEHKVKKP
notes: Endogenous protein
